According to the supplement of paper PMC9170038:

System: MS2 coat protein
Assay: apparent KD of MS2 coat protein; designed switch direction (-1 OFF switch, 1 ON switch): -1; higher = weaker reporter binding
In short: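 Apparent KD, taken as the median over clusters for each design, was obtained by curve-fitting normalised cluster fluorescence. Designed RNA switches had been transcribed on Illumina chips by stalled E. coli RNA polymerase and titrated with SNAP-549-labelled MS2 coat protein, doubling from 0.7 or 1.5 nM to 3 µM.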

[1] = input ligand: microRNA oligo, concentration not stated
[2] = Eterna round: R95, input ligand: microRNA oligo, concentration not stated
[3] = Eterna round: R95, input ligand: FMN 200 uM
[4] = Eterna round: R95, input ligand: none

Sequence	apparent KD of MS2 coat protein (input ligand: FMN 200 uM)	apparent KD of MS2 coat protein (input ligand: none)	apparent KD of MS2 coat protein [2]	further results
AAGAGUAGAGGAUAUACGAAAAAAGAGUCGAAAGACUCGGGACAUGAGGAUCACCCAUGUAGAAGGCUACUCAA [Hyphema Seclusion Mod 62% 5] (Eterna round: R96, puzzle: Exclusion 2)				apparent KD of MS2 coat protein [1]: 19.4 nM
AAGAUACAUGAGGAUCACCCAUGUUAGGAUAUACGCAUGCAUGCAUGCAUGCAUGCAAGUAGAAGGAACCAUGC [Design #3] (Eterna round: R97, puzzle: Exclusion 1)	29.2 nM	28.4 nM		
AAGAUGCGGAUAGGAUAUGGAAAAAAAAAAAAAUUAGAAGGGUUGGUUAAAAUACAUGAGGAUCACCCAUGUGAAUCAUGAGAA [AK ExNG1-2.1] (Eterna round: R96, puzzle: Exclusion NG 1)	159 nM	159 nM		apparent KD of MS2 coat protein [1]: 127 nM
AAGAUGCGGAUAGGAUAUGGAAAGAAGGAAAGACCAGAAGGAUUGGUCAUAUAACAUGAGGAUCACCCAUGUAUAUGUUGUGAA [AK ExNG1-3.1] (Eterna round: R96, puzzle: Exclusion NG 1)				apparent KD of MS2 coat protein [1]: 13 nM
AAGAUGCGGAUAGGAUAUGGAAAUUAAUAAAGACCAGAAGGAUUGGUCACACAACAUGAGGAUCACCCAUGUGUGUGUUGUGAA [AK ExNG1-5] (Eterna round: R96, puzzle: Exclusion NG 1)				apparent KD of MS2 coat protein [1]: 10.6 nM
AAGAUGUGAGGAUAUGUAUCGCAUAUAGAGCGAACACUAGGAUAGAAGGCACAUGAGGAUCACCCAUGUGAUCG [Eternabot (L2) Solution 73] (Eterna round: R97, puzzle: Exclusion 4)	39.9 nM	45.3 nM		
AAGCAGUCAGGAUAUCGUUAAUUUAGUUGUUUGUAUUAGUUCGAGAAGGGACAUGAGGAUCACCCAUGUAAGAA [Ex4 #43] (Eterna round: R97, puzzle: Exclusion 4)	40.5 nM	41 nM		
AAGCCCUGAGGAUAUCCUUACUCGCACAUGAGGAUCACCCAUGUCCUCCUCCGGGCUUCGGGAGAAGGCAGGUCUC [Megrez-7.7] (Eterna round: R97, puzzle: Exclusion 5)	40.1 nM	56.6 nM		
AAGCCUGGCUCAGGAUAUACAUGAGGAUCACCCAUGUUCUCAGUGAGGCAAGAUAACAACACGACGUAGAAGGGAGCUAGGCCG [Eternabot solution 5] (Eterna round: R96, puzzle: Exclusion NG 2)	81.7 nM	40 nM		apparent KD of MS2 coat protein [1]: 17.9 nM
AAGCUUUUUGGUGACCUCGACAUGAGGAUCACCCAUGUCGUAUUAGAACUUCGGACGAUGAUCGUGCUCGUCAUAAG [Eternabot (Original) Solution 43] (Eterna round: R97, puzzle: Sensor, turn-off variant 1)	598 nM	677 nM		
AAGGAACGAGGAUAUGCAGGUUGAGCUCGAGUUCGACCGGAACAUGAGGAUCACCCAUGUAGAAGGUGUAUCCC [Vedibe] (puzzle: Exclusion 2)			24 nM	
AAGGCGGUAGGAUAUACAUGAGGAUCACCCAUGUACGCGUGGAUCCCUGUGACGUCAAGUAGAAGGGCCAUAAA [Xetesobiar] (Eterna round: R97, puzzle: Exclusion 3)	27.5 nM	31.8 nM		
AAGUACCGUCACGAAAGUGAUGGUACAGCAAGUAAAUGUACAUGAGGAUCACCCAUGUCCUCAAUUGCUCGUCUUAU [Sensor 3 - 59] (puzzle: Sensor v3, turn-off variant 2)			173 nM	apparent KD of MS2 coat protein [3]: 185 nM; apparent KD of MS2 coat protein [4]: 212 nM
AAGUACCGUCACGAUAGUGAUGGUACAACAAGCAAAUAUACAUGAGGAUCACCCAUGUCCUCUUUUGCUCGUCUUGU [Sensor 3] (puzzle: Sensor v3, turn-off variant 2)			237 nM	apparent KD of MS2 coat protein [3]: 798 nM; apparent KD of MS2 coat protein [4]: 900 nM
AAGUACCGUCACGAUAGUGAUGGUACAACAAGCAGGUGAACAUGAGGAUCACCCAUGUCCUCAAUUGCUCGUCUUAU [Sensor 3 - 73] (puzzle: Sensor v3, turn-off variant 2)			48.3 nM	apparent KD of MS2 coat protein [3]: 156 nM; apparent KD of MS2 coat protein [4]: 159 nM
AAGUAGGGAGGAUAUACAUAGAUACAGAUUCAUGUAGAACUACAUGAGGAUCACCCAUGUAGAAGGCCCUAAUA [AJ 37] (Eterna round: R96, puzzle: Exclusion 2)	255 nM	27.9 nM		apparent KD of MS2 coat protein [1]: 25.1 nM
AAGUCGGCAGGAUAUACAUGAGGAUCACCCAUGUAAAUUUUUCGUUUAACUUGAAUGUGUAGAAGGGCCAUAAA [Ex3 #66] (Eterna round: R97, puzzle: Exclusion 3)	24.3 nM	24.5 nM		
AAGUGCGAAGGAUAUACAUGAGGAUCACCCAUGUUCACCAAAACACAGGUCUCAGACUGUAGAAGGUCGCACAG [Eternabot (Original) Solution 45] (Eterna round: R97, puzzle: Exclusion 3)	605 nM	59.8 nM		

Sequence	apparent KD of MS2 coat protein (input ligand: FMN 200 uM)	apparent KD of MS2 coat protein (input ligand: none)	apparent KD of MS2 coat protein [2]	further results
AAGUUACAUGAGGAUCACCCAUGUGAGGAUAUGAGUCAGUCACGGUGACGUGGCUGACUCAGAAGGCACAAUGG [JL-ex1-4.41 salish99 mod] (Eterna round: R97, puzzle: Exclusion 1)	43 nM	290 nM		
AAUAAACAUGAGGAUCACCCAUGUCAGGAUAUCCAUUUGUUUUUGUUGGUUUUUUUUUGGAGAAGGGACGCUUA [Lollin - Alpha 1] (puzzle: Exclusion 1)			58.1 nM	
AAUAAAGGAGGAUAUACUAAAAUAUGAAUAAAAUAAAUAAAACAUGAGGAUCACCCAUGUAGAAGGCCUAAUAA [JMF's Not so obvious solution 3] (puzzle: Exclusion 2)			23.9 nM	apparent KD of MS2 coat protein [3]: 22.8 nM; apparent KD of MS2 coat protein [4]: 25.2 nM
AAUAACAAGCUGAUCCUAAACAUGAGGAUCACCCAUGUGUUCGUCUUGUAAAGUACUAUCACGAAAGUGAUAGUACA (Eterna round: R97, puzzle: Sensor, turn-off variant 1)	75.2 nM	80 nM		
AAUAACAAGCUGAUCCUCCACAUGAGGAUCACCCAUGUGUUCGUCUUGUAAAGUACUAUCACGAAAGUGAUAGUACA (Eterna round: R97, puzzle: Sensor, turn-off variant 1)	984 nM	1630 nM		
AAUAACAGAGGAUAUACUAUUUUAUGUAUUUAUUAUUUUGAACAUGAGGAUCACCCAUGUAGAAGGCUGAAUAA [JMF 20] (puzzle: Exclusion 2)			19.9 nM	
AAUAACAGAGGAUAUACUGUUUUAUGUAUUUAUUAUUUUAAACAUGAGGAUCACCCAUGUAGAAGGCUGAUUGA [JMF 71] (puzzle: Exclusion 2)			26.8 nM	
AAUAACAGAGGAUAUACUGUUUUAUGUGUUUAUUGUUUUAAACAUGAGGAUCACCCAUGUAGAAGGCUGAGUAA [JMF 32] (puzzle: Exclusion 2)			33.5 nM	
AAUAAGUGAGGAUAUACGUCUGGACCCGGGAGGGAAAUAAAACAUGAGGAUCACCCAUGUAGAAGGCACAAUAA [Excls2-III] (puzzle: Exclusion 2)			13.5 nM	apparent KD of MS2 coat protein [3]: 17.5 nM; apparent KD of MS2 coat protein [4]: 16.9 nM
AAUAAGUGAGGAUAUCCAAUAAUAAAUAAAAUAAUAAAUAAGGAGAAGGCACAUGAGGAUCACCCAUGUAAUAA [JMF's solution 2] (puzzle: Exclusion 4)			14.8 nM	apparent KD of MS2 coat protein [3]: 19 nM; apparent KD of MS2 coat protein [4]: 15.7 nM
AAUAAUAAAGUCAGGAUAUCUAGAGCCUCGGCUCUAGAGAAGGGACAUGAGGAUCACCCAUGUCACUCAAUAAU [BmEx4/3-D2] (Eterna round: R97, puzzle: Brourd's mod of Exclusion 4)	20.2 nM	17.7 nM		
AAUAAUAAGGAGGAUAUCGUAUCCGAAAGGAUACGAGAAGGCCUAACAUGAGGAUCACCCAUGUUCCUCAAUAA [Mat - Exclusion 6 - Eli Mod - D54] (puzzle: Exclusion 6)			264 nM	apparent KD of MS2 coat protein [3]: 773 nM; apparent KD of MS2 coat protein [4]: 267 nM
AAUACAAGCUAUUGAUCCCACAUGAGGAUCACCCAUGUAGAUGGCGGUGACACCUCCAUUACGAUAGCUCGUCUUAU [Sensor-V1 #57] (Eterna round: R97, puzzle: Sensor, turn-off variant 1)	321 nM	347 nM		
AAUACAAGCUAUUGAUCCCACAUGAGGAUCACCCAUGUGCCUGGCCGUGAGACAAGGUUUACAAUAGCUCGUCUUAU [Sensor-V1 #46] (Eterna round: R97, puzzle: Sensor, turn-off variant 1)	46.1 nM	44.7 nM		
AAUACAAGCUAUUGAUCCCACAUGAGGAUCACCCAUGUUCCUGGCCGUGAGGCUAGGUAAACAAUAGCUCGUCUUAU [Sensor-V1 #42] (Eterna round: R97, puzzle: Sensor, turn-off variant 1)	91.2 nM	99.8 nM		
AAUAGCAAGCAGAUCCUAAACAUGAGGAUCACCCAUGUGCUCGUCUUGUAAAGUACUAUCACGAAAGUGAUAGUACA [Sensor 3, v1 - 61] (puzzle: Sensor v3, turn-off variant 1)			326 nM	apparent KD of MS2 coat protein [3]: 118 nM; apparent KD of MS2 coat protein [4]: 88.3 nM
AAUAGUCAAGUUAGGAUAUUGCACCAGUGAUGGACCAAGAAGGAACAUGAGGAUCACCCAUGUGAACUCACGAC [Eternabot (Original) Solution 3] (Eterna round: R97, puzzle: Brourd's mod of Exclusion 4)	344 nM	40.8 nM		
